Laboratory results published in the supplement of paper PMC5998384.

Columns and labels:
HeLa Kyoto [1] = experiment: thermal stability score vs G1/S (z-score of summed log2 fold changes over temperatures); higher = more thermally stable than in G1/S
HeLa Kyoto [2] = experiment: solubility in G1/S (NP-40 vs SDS abundance) (log2 ratio); higher = more soluble; settings: cell cycle stage: G1/S
HeLa Kyoto [3] = experiment: solubility change mitosis vs G1/S (difference of NP-40 vs SDS log2 ratios) (log2 ratio difference); higher = more soluble in mitosis
HeLa Kyoto [4] = experiment: melting temperature (median over replicates), in situ; higher = more thermally stable
[5] = cell cycle stage: early G1 (4.5 h after nocodazole release)
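Wherever melting temperature (median over replicates), in situ is given: HeLa Kyoto cells synchronized by double thymidine or nocodazole block, proteins quantified by TMT10plex mass spectrometry, three independent biological replicates.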
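Wherever solubility change mitosis vs G1/S (difference of NP-40 vs SDS log2 ratios) is given: synchronized HeLa Kyoto cells (double thymidine block for G1/S, nocodazole release for mitosis), protein amounts in NP-40 versus SDS lysates quantified by mass spectrometry, three biological replicates.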
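Wherever solubility in G1/S (NP-40 vs SDS abundance) is given: HeLa Kyoto cells arrested at G1/S by double thymidine block, proteins quantified by TMT10plex mass spectrometry in mild NP-40 versus SDS extracts, three biological replicates.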
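Wherever thermal stability score vs G1/S (z-score of summed log2 fold changes over temperatures) is given: synchronized HeLa Kyoto cells, proteins quantified by TMT10plex mass spectrometry, three biological replicates, mitosis taken 0.5 h after nocodazole release, G1/S directly after double thymidine block.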

Chain of CASKIN2 (chain, as listed by the source): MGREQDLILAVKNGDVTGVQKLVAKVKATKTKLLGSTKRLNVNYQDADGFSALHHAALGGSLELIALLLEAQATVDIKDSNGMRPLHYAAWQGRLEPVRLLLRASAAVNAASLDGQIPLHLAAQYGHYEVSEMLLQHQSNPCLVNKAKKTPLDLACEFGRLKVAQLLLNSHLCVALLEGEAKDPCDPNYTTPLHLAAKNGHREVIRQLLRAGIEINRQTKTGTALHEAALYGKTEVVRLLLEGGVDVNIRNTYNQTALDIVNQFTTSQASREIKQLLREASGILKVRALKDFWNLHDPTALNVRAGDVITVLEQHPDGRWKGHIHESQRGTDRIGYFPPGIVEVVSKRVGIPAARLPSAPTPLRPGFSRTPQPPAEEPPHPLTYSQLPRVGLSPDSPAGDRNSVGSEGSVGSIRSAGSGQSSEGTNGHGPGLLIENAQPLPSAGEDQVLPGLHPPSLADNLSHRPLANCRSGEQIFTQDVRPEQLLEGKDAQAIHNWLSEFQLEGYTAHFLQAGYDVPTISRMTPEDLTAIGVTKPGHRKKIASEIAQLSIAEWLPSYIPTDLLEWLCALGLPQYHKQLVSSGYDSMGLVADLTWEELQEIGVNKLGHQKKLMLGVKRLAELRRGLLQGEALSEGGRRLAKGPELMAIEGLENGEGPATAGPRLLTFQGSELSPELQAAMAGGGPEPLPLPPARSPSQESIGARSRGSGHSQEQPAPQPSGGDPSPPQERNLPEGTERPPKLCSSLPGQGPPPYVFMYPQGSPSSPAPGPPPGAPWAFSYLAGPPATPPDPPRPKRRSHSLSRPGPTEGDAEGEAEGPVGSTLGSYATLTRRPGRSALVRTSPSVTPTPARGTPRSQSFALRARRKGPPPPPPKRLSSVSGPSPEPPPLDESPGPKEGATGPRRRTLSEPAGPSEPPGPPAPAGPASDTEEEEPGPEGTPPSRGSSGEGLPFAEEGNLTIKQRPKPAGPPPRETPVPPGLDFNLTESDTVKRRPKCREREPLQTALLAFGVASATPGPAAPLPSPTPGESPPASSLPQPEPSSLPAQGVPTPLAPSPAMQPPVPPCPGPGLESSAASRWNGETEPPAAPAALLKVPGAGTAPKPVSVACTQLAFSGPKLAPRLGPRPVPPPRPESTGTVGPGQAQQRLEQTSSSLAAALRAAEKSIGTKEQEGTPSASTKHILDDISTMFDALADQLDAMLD

Substance | thermal stability score (HeLa Kyoto [1]; [5]) | thermal stability score (HeLa Kyoto [1]; cell cycle stage: mitosis) | solubility in G1/S (log2) (HeLa Kyoto [2]) | solubility change mitosis (log2) (HeLa Kyoto [3]) | melting temperature (HeLa Kyoto [4]; cell cycle stage: G1/S) | melting temperature (HeLa Kyoto [4]; cell cycle stage: mitosis)
MRGPPAWPLRLLEPPSPAEPGRLLPVACVWAAASRVPGSLSPFTGLRPARLWGAGPALLWGVGAARRWRSGCRGGGPGASRGVLGLARLLGLWARGPGSCRCGAFAGPGAPRLPRARFPGGPAAAAWAGDEAWRRGPAAPPGDKGRLRPAAAGLPEARKLLGLAYPERRRLAAAVGFLTMSSVISMSAPFFLGKIIDVIYTNPTVDYSDNLTRLCLGLSAVFLCGAAANAIRVYLMQTSGQRIVNRLRTSLFSSILRQEVAFFDKTRTGELINRLSSDTALLGRSVTENLSDGLRAGAQASVGISMMFFVSPNLATFVLSVVPPVSIIAVIYGRYLRKLTKVTQDSLAQATQLAEERIGNVRTVRAFGKEMTEIEKYASKVDHVMQLARKEAFARAGFFGATGLSGNLIVLSVLYKGGLLMGSAHMTVGELSSFLMYAFWVGISIGGLSSFYSELMKGLGAGGRLWELLEREPKLPFNEGVILNEKSFQGALEFKNVHFAYPARPEVPIFQDFSLSIPSGSVTALVGPSGSGKSTVLSLLLRLYDPASGTISLDGHDIRQLNPVWLRSKIGTVSQEPILFSCSIAENIAYGADDPSSVTAEEIQRVAEVANAVAFIRNFPQGFNTVVGEKGVLLSGGQKQRIAIARALLKNPKILLLDEATSALDAENEYLVQEALDRLMDGRTVLVIAHRLSTIKNANMVAVLDQGKITEYGKHEELLSKPNGIYRKLMNKQSFISA [ABCB10] | 0.476 | -0.874 | -0.0973 | -0.029 | 53.8 °C | 54 °C
MSKRLRSSEVCADCSGPDPSWASVNRGTFLCDECCSVHRSLGRHISQVRHLKHTPWPPTLLQMVETLYNNGANSIWEHSLLDPASIMSGRRKANPQDKVHPNKAEFIRAKYQMLAFVHRLPCRDDDSVTAKDLSKQLHSSVRTGNLETCLRLLSLGAQANFFHPEKGNTPLHVASKAGQILQAELLAVYGADPGTQDSSGKTPVDYARQGGHHELAERLVEIQYELTDRLAFYLCGRKPDHKNGQHFIIPQMADSSLDLSELAKAAKKKLQSLSNHLFEELAMDVYDEVDRRETDAVWLATQNHSALVTETTVVPFLPVNPEYSSTRNQGRQKLARFNAHEFATLVIDILSDAKRRQQGSSLSGSKDNVELILKTINNQHSVESQDNDQPDYDSVASDEDTDLETTASKTNRQKSLDSDLSDGPVTVQEFMEVKNALVASEAKIQQLMKVNNNLSDELRIMQKKLQTLQSENSNLRKQATTNVYQVQTGSEYTDTSNHSSLKRRPSARGSRPMSMYETGSGQKPYLPMGEASRPEESRMRLQPFPAHIGRSALVTSSSSLPSFPSTLSWSRDESARRASRLEKQNSTPESDYDNTPNDMEPDGMGSSRKGRQRSMVWPGDGLVPDTAEPHVAPSPTLPSTEDVIRKTEQITKNIQELLRAAQENKHDSYIPCSERIHVAVTEMAALFPKKPKSDMVRTSLRLLTSSAYRLQSECKKTLPGDPGSPTDVQLVTQQVIQCAYDIAKAAKQLVTITTKENNN [GIT2] | 1.06 | 2.68 | 0.317 | -0.13 | 48 °C | 48.9 °C
MAAPDLSTNLQEEATCAICLDYFTDPVMTDCGHNFCRECIRRCWGQPEGPYACPECRELSPQRNLRPNRPLAKMAEMARRLHPPSPVPQGVCPAHREPLAAFCGDELRLLCAACERSGEHWAHRVRPLQDAAEDLKAKLEKSLEHLRKQMQDALLFQAQADETCVLWQKMVESQRQNVLGEFERLRRLLAEEEQQLLQRLEEEELEVLPRLREGAAHLGQQSAHLAELIAELEGRCQLPALGLLQDIKDALRRVQDVKLQPPEVVPMELRTVCRVPGLVETLRRFRGDVTLDPDTANPELILSEDRRSVQRGDLRQALPDSPERFDPGPCVLGQERFTSGRHYWEVEVGDRTSWALGVCRENVNRKEKGELSAGNGFWILVFLGSYYNSSERALAPLRDPPRRVGIFLDYEAGHLSFYSATDGSLLFIFPEIPFSGTLRPLFSPLSSSPTPMTICRPKGGSGDTLAPQ [TRIM11] | 0.605 | 0.584 | 0.185 | -0.192 | 50.8 °C | 49.4 °C
MAKIAKTHEDIEAQIREIQGKKAALDEAQGVGLDSTGYYDQEIYGGSDSRFAGYVTSIAATELEDDDDDYSSSTSLLGQKKPGYHAPVALLNDIPQSTEQYDPFAEHRPPKIADREDEYKKHRRTMIISPERLDPFADGGKTPDPKMNARTYMDVMREQHLTKEEREIRQQLAEKAKAGELKVVNGAAASQPPSKRKRRWDQTADQTPGATPKKLSSWDQAETPGHTPSLRWDETPGRAKGSETPGATPGSKIWDPTPSHTPAGAATPGRGDTPGHATPGHGGATSSARKNRWDETPKTERDTPGHGSGWAETPRTDRGGDSIGETPTPGASKRKSRWDETPASQMGGSTPVLTPGKTPIGTPAMNMATPTPGHIMSMTPEQLQAWRWEREIDERNRPLSDEELDAMFPEGYKVLPPPAGYVPIRTPARKLTATPTPLGGMTGFHMQTEDRTMKSVNDQPSGNLPFLKPDDIQYFDKLLVDVDESTLSPEEQKERKIMKLLLKIKNGTPPMRKAALRQITDKAREFGAGPLFNQILPLLMSPTLEDQERHLLVKVIDRILYKLDDLVRPYVHKILVVIEPLLIDEDYYARVEGREIISNLAKAAGLATMISTMRPDIDNMDEYVRNTTARAFAVVASALGIPSLLPFLKAVCKSKKSWQARHTGIKIVQQIAILMGCAILPHLRSLVEIIEHGLVDEQQKVRTISALAIAALAEAATPYGIESFDSVLKPLWKGIRQHRGKGLAAFLKAIGYLIPLMDAEYANYYTREVMLILIREFQSPDEEMKKIVLKVVKQCCGTDGVEANYIKTEILPPFFKHFWQHRMALDRRNYRQLVDTTVELANKVGAAEIISRIVDDLKDEAEQYRKMVMETIEKIMGNLGAADIDHKLEEQLIDGILYAFQEQTTEDSVMLNGFGTVVNALGKRVKPYLPQICGTVLWRLNNKSAKVRQQAADLISRTAVVMKTCQEEKLMGHLGVVLYEYLGEEYPEVLGSILGALKAIVNVIGMHKMTPPIKDLLPRLTPILKNRHEKVQENCIDLVGRIADRGAEYVSAREWMRICFELLELLKAHKKAIRRATVNTFGYIAKAIGPHDVLATLLNNLKVQERQNRVCTTVAIAIVAETCSPFTVLPALMNEYRVPELNVQNGVLKSLSFLFEYIGEMGKDYIYAVTPLLEDALMDRDLVHRQTASAVVQHMSLGVYGFGCEDSLNHLLNYVWPNVFETSPHVIQAVMGALEGLRVAIGPCRMLQYCLQGLFHPARKVRDVYWKIYNSIYIGSQDALIAHYPRIYNDDKNTYIRYELDYIL [SF3B1] | -1.78 | -0.315 | -0.486 | 0.299 | 50.9 °C | 50.4 °C
GMPPB | -1.12 | -4.14 | -0.038 | -0.108 | 54.3 °C | 54.1 °C
MDDLCEANGTFAISLFKILGEEDNSRNVFFSPMSISSALAMVFMGAKGSTAAQMSQALCLYKDGDIHRGFQSLLSEVNRTGTQYLLRTANRLFGEKTCDFLPDFKEYCQKFYQAELEELSFAEDTEECRKHINDWVAEKTEGKISEVLDAGTVDPLTKLVLVNAIYFKGKWNEQFDRKYTRGMLFKTNEEKKTVQMMFKEAKFKMGYADEVHTQVLELPYVEEELSMVILLPDDNTDLAVVEKALTYEKFKAWTNSEKLTKSKVQVFLPRLKLEESYDLEPFLRRLGMIDAFDEAKADFSGMSTEKNVPLSKVAHKCFVEVNEEGTEAAAATAVVRNSRCSRMEPRFCADHPFLFFIRHHKTNCILFCGRFSSP [SERPINB8] | -0.0278 | -0.739 | 0.146 | -0.115 | 54.6 °C | 54.2 °C
MAVADLALIPDVDIDSDGVFKYVLIRVHSAPRSGAPAAESKEIVRGYKWAEYHADIYDKVSGDMQKQGCDCECLGGGRISHQSQDKKIHVYGYSMAYGPAQHAISTEKIKAKYPDYEVTWANDGY [PHPT1] | -0.712 | -1.99 | 0.345 | 0.028 | 52.9 °C | 53.5 °C
CASKIN2 | 0.8 | 1.68 | 0.412 | -0.0911 | 49.4 °C | 48.8 °C
MSRSAAASGGPRRPERHLPPAPCGAPGPPETCRTEPDGAGTMNKLRQSLRRRKPAYVPEASRPHQWQADEDAVRKGTCSFPVRYLGHVEVEESRGMHVCEDAVKKLKAMGRKSVKSVLWVSADGLRVVDDKTKDLLVDQTIEKVSFCAPDRNLDKAFSYICRDGTTRRWICHCFLALKDSGERLSHAVGCAFAACLERKQRREKECGVTAAFDASRTSFAREGSFRLSGGGRPAEREAPDKKKAEAAAAPTVAPGPAQPGHVSPTPATTSPGEKGEAGTPVAAGTTAAAIPRRHAPLEQLVRQGSFRGFPALSQKNSPFKRQLSLRLNELPSTLQRRTDFQVKGTVPEMEPPGAGDSDSINALCTQISSSFASAGAPAPGPPPATTGTSAWGEPSVPPAAAFQPGHKRTPSEAERWLEEVSQVAKAQQQQQQQQQQQQQQQQQQQQAASVAPVPTMPPALQPFPAPVGPFDAAPAQVAVFLPPPHMQPPFVPAYPGLGYPPMPRVPVVGITPSQMVANAFCSAAQLQPQPATLLGKAGAFPPPAIPSAPGSQARPRPNGAPWPPEPAPAPAPELDPFEAQWAALEGKATVEKPSNPFSGDLQKTFEIEL [NUMBL] | 2.8 | 2.05 | 0.205 | -0.00185 | 51.9 °C | 52.3 °C
MAAQSAPKVVLKSTTKMSLNERFTNMLKNKQPTPVNIRASMQQQQQLASARNRRLAQQMENRPSVQAALKLKQSLKQRLGKSNIQARLGRPIGALARGAIGGRGLPIIQRGLPRGGLRGGRATRTLLRGGMSLRGQNLLRGGRAVAPRMGLRRGGVRGRGGPGRGGLGRGAMGRGGIGGRGRGMIGRGRGGFGGRGRGRGRGRGALARPVLTKEQLDNQLDAYMSKTKGHLDAELDAYMAQTDPETND [CHTOP] | -2.91 | -0.126 | -0.246 | 0.761 | 51 °C | 51.7 °C
MDRGTLPLAVALLLASCSLSPTSLAETVHCDLQPVGPERGEVTYTTSQVSKGCVAQAPNAILEVHVLFLEFPTGPSQLELTLQASKQNGTWPREVLLVLSVNSSVFLHLQALGIPLHLAYNSSLVTFQEPPGVNTTELPSFPKTQILEWAAERGPITSAAELNDPQSILLRLGQAQGSLSFCMLEASQDMGRTLEWRPRTPALVRGCHLEGVAGHKEAHILRVLPGHSAGPRTVTVKVELSCAPGDLDAVLILQGPPYVSWLIDANHNMQIWTTGEYSFKIFPEKNIRGFKLPDTPQGLLGEARMLNASIVASFVELPLASIVSLHASSCGGRLQTSPAPIQTTPPKDTCSPELLMSLIQTKCADDAMTLVLKKELVAHLKCTITGLTFWDPSCEAEDRGDKFVLRSAYSSCGMQVSASMISNEAVVNILSSSSPQRKKVHCLNMDSLSFQLGLYLSPHFLQASNTIEPGQQSFVQVRVSPSVSEFLLQLDSCHLDLGPEGGTVELIQGRAAKGNCVSLLSPSPEGDPRFSFLLHFYTVPIPKTGTLSCTVALRPKTGSQDQEVHRTVFMRLNIISPDLSGCTSKGLVLPAVLGITFGAFLIGALLTAALWYIYSHTRSPSKREPVVAVAAPASSESSSTNHSIGSTQSTPCSTSSMA [ENG] | -1.8 | -2.37 | 0.178 | -0.131 | 56.1 °C | 55.6 °C
MSDTSESGAGLTRFQAEASEKDSSSMMQTLLTVTQNVEVPETPKASKALEVSEDVKVSKASGVSKATEVSKTPEAREAPATQASSTTQLTDTQVLAAENKSLAADTKKQNADPQAVTMPATETKKVSHVADTKVNTKAQETEAAPSQAPADEPEPESAAAQSQENQDTRPKVKAKKARKVKHLDGEEDGSSDQSQASGTTGGRRVSKALMASMARRASRGPIAFWARRASRTRLAAWARRALLSLRSPKARRGKARRRAAKLQSSQEPEAPPPRDVALLQGRANDLVKYLLAKDQTKIPIKRSDMLKDIIKEYTDVYPEIIERAGYSLEKVFGIQLKEIDKNDHLYILLSTLEPTDAGILGTTKDSPKLGLLMVLLSIIFMNGNRSSEAVIWEVLRKLGLRPGIHHSLFGDVKKLITDEFVKQKYLDYARVPNSNPPEYEFFWGLRSYYETSKMKVLKFACKVQKKDPKEWAAQYREAMEADLKAAAEAAAEAKARAEIRARMGIGLGSENAAGPCNWDEADIGPWAKARIQAGAEAKAKAQESGSASTGASTSTNNSASASASTSGGFSAGASLTATLTFGLFAGLGGAGASTSGSSGACGFSYK [MAGED2] | 2.46 | 4.54 | 0.259 | -0.157 | 46.9 °C | 48.4 °C
